The supplement of paper PMC7877785
± gives the uncertainty stated by the source.

Assay: self-splicing fitness, log relative to wild type (ln ratio); higher = more splicing; Tetrahymena group I intron in knt gene, E. coli kanamycin selection, DiMSum; sequences stand for … in CUCUCU…GGAGGGAAAAGUUAUCAGGCAUGCACCUGGUAGCUAGUCUUUAAACCAAUAGAUUGCAUCGGUUUAAAAGGCAAGACCGUCAAAUUGCGGGAAAGGGGUCAACAGCCGUUCAGUACCAAGUCUCAGGGGAAACUUUGAGAUGGCCUUGCAAAGGGUAUGGUAAUAAGCUGACGGACAUGGUCCUAACCACGCAGCCAAGUCCUAAGUCAACAGAUCUUCUGUUGAUAUGGAUGCAGUUCACAGACUAAAUGUCGGUCGGGGAAGAUGUAUUCUUCUCAUAAGAUAUAGUCGGACCUCUCCUUAAUGGGAGCUAGCGGAUGAAGUGAUGCAACACUGGAGCCGCUGGGAACUAAUUUGUAUGCGAAAGUAUAUUGAUUAGUUUUGGAGUACUCGUGGUCG
Procedure, shortened: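 Pooled colonies went to amplicon sequencing on an Illumina HiSeq 2500 after six replicate transformations. The plates were LB agar with 100 μg/mL carbenicillin, 50 μM IPTG and 0.2% rhamnose, with or without 25 μg/mL kanamycin, incubated overnight at 37°C or 30°C. The E. coli BL21(DE3) library had all eight P1ex-region intron nucleotides randomised, the intron placed in the knt kanamycin-resistance gene on pET-22b(+). DiMSum fitness is the error-weighted combination of replicate fold changes, kanamycin against none, normalised to wild type.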

Row | Sequence | self-splicing fitness (ln) (30 °C) | self-splicing fitness (ln) (37 °C)
1 | AACUAGCAAUAUUACGGUUC | -4.49 ± 0.24 | -2.94 ± 0.21
2 | AACUAGCAAUAUUACGUAGG | -2.36 ± 0.11 | -1.29 ± 0.12
3 | AACUAGCAAUAUUACGUCUG | -1.86 ± 0.088 | -1.37 ± 0.088
4 | AACUAGCAAUAUUACGUGAU | -1.71 ± 0.11 | -1.09 ± 0.13
5 | AACUAGCAAUAUUACGUGUG | -1.47 ± 0.051 | -0.869 ± 0.067
6 | AACUAGCAAUAUUACGUUUA | -1.98 ± 0.11 | -1.1 ± 0.11
7 | AAGAAGCAAUAUUACGAACC | -0.581 ± 0.14 | -0.25 ± 0.17
8 | AAGAAGCAAUAUUACGACCG | -1.05 ± 0.088 | 0.483 ± 0.14
9 | AAGAAGCAAUAUUACGACUG | -0.231 ± 0.089 | 0.323 ± 0.16
10 | AAGAAGCAAUAUUACGAGGA | -3.43 ± 0.28 | -2.98 ± 0.3
11 | AAGAAGCAAUAUUACGAGUU | -1.15 ± 0.079 | -0.169 ± 0.11
12 | AAGAAGCAAUAUUACGAUAC | -2.94 ± 0.19 | -1.31 ± 0.17
13 | AAGAAGCAAUAUUACGAUCC | -0.553 ± 0.14 | -0.745 ± 0.18
14 | AAGAAGCAAUAUUACGAUCU | 0.00748 ± 0.089 | -0.373 ± 0.11
15 | AAGAAGCAAUAUUACGAUGG | -1.93 ± 0.14 | -2 ± 0.22
16 | AAGAAGCAAUAUUACGAUUG | -2.85 ± 0.26 | -1.78 ± 0.19
17 | AAGAAGCAAUAUUACGCAGC | -3.17 ± 0.38 | -2.12 ± 0.22
18 | AAGAAGCAAUAUUACGCAUC | -1.92 ± 0.22 | -0.986 ± 0.2
19 | AAGAAGCAAUAUUACGCCCG | -0.579 ± 0.18 | -1.38 ± 0.23
20 | AAGAAGCAAUAUUACGCUCA | -0.0265 ± 0.13 | -0.132 ± 0.12
21 | AAGAAGCAAUAUUACGCUUA | -1.05 ± 0.12 | -0.977 ± 0.13
22 | AAGAAGCAAUAUUACGGCUA | -0.552 ± 0.077 | -0.0286 ± 0.1
23 | AAGAAGCAAUAUUACGGUAC | -2.37 ± 0.19 | -2.96 ± 0.33
24 | AAGAAGCAAUAUUACGGUCA | -0.625 ± 0.088 | 0.197 ± 0.1

Row | Sequence | self-splicing fitness (ln) (30 °C) | self-splicing fitness (ln) (37 °C)
25 | AAGAAGCAAUAUUACGUACA | -0.642 ± 0.1 | -0.0821 ± 0.12
26 | AAGAAGCAAUAUUACGUAUG | -1.93 ± 0.11 | -1.14 ± 0.1
27 | AAGAAGCAAUAUUACGUCGG | -0.907 ± 0.12 | -1.02 ± 0.14
28 | AAGAAGCAAUAUUACGUGCC | -1.01 ± 0.11 | -1.14 ± 0.11
29 | AAGAAGCAAUAUUACGUUUC | -3.62 ± 0.23 | -3.15 ± 0.26
30 | AAGCAGCAAUAUUACGAAGG | -2.99 ± 0.16 | -3.01 ± 0.26
31 | AAGCAGCAAUAUUACGAGAC | – | -0.225 ± 0.15
32 | AAGCAGCAAUAUUACGAUUC | -1.73 ± 0.081 | -0.707 ± 0.092
33 | AAGCAGCAAUAUUACGCCAA | -2.31 ± 0.21 | -2.04 ± 0.21
34 | AAGCAGCAAUAUUACGCGGG | -1.43 ± 0.078 | -1.27 ± 0.1
35 | AAGCAGCAAUAUUACGCGUG | -3.76 ± 0.14 | -2.25 ± 0.11
36 | AAGCAGCAAUAUUACGCUCG | -1.67 ± 0.15 | 0.286 ± 0.14
37 | AAGCAGCAAUAUUACGGCCA | -0.775 ± 0.18 | 0.116 ± 0.25
38 | AAGCAGCAAUAUUACGGCCG | -0.9 ± 0.11 | -0.057 ± 0.17
39 | AAGCAGCAAUAUUACGGCCU | -0.182 ± 0.057 | 0.636 ± 0.074
40 | AAGCAGCAAUAUUACGGGCG | -0.645 ± 0.065 | -0.638 ± 0.099
41 | AAGCAGCAAUAUUACGGUGA | -0.827 ± 0.1 | -1.15 ± 0.092
42 | AAGCAGCAAUAUUACGUAGC | -3.19 ± 0.15 | -1.94 ± 0.16
43 | AAGCAGCAAUAUUACGUAUA | -2.85 ± 0.19 | -2.69 ± 0.19
44 | AAGCAGCAAUAUUACGUCGC | -2.95 ± 0.19 | -2.51 ± 0.31
45 | AAGCAGCAAUAUUACGUCGU | -2.51 ± 0.095 | -0.636 ± 0.12
46 | AAGCAGCAAUAUUACGUCUG | -4.47 ± 0.37 | -1.72 ± 0.26
47 | AAGCAGCAAUAUUACGUGAU | -2.39 ± 0.081 | -1.49 ± 0.11
48 | AAGCAGCAAUAUUACGUGGU | -4.16 ± 0.2 | -1.27 ± 0.11

Row | Sequence | self-splicing fitness (ln) (30 °C) | self-splicing fitness (ln) (37 °C)
49 | AAGCAGCAAUAUUACGUUAA | -1.76 ± 0.12 | -2.14 ± 0.14
50 | AAGGAGCAAUAUUACGAAUA | -2.18 ± 0.27 | -2.77 ± 0.38
51 | AAGGAGCAAUAUUACGACGA | -1.94 ± 0.15 | -0.382 ± 0.11
52 | AAGGAGCAAUAUUACGAGGC | -2.89 ± 0.17 | -2.41 ± 0.44
53 | AAGGAGCAAUAUUACGAUGG | -3.59 ± 0.27 | -2.11 ± 0.23
54 | AAGGAGCAAUAUUACGCACC | – | -1.22 ± 0.3
55 | AAGGAGCAAUAUUACGCAGU | -3.65 ± 0.43 | -1.38 ± 0.19
56 | AAGGAGCAAUAUUACGCAUA | -2.45 ± 0.49 | –
57 | AAGGAGCAAUAUUACGCAUG | -3.28 ± 0.22 | -2.65 ± 0.22
58 | AAGGAGCAAUAUUACGCCCG | -1.88 ± 0.17 | -1.01 ± 0.22
59 | AAGGAGCAAUAUUACGCGAG | -2.86 ± 0.19 | -2.23 ± 0.19
60 | AAGGAGCAAUAUUACGCUCG | -0.454 ± 0.13 | -0.814 ± 0.17
61 | AAGGAGCAAUAUUACGCUGU | -2.59 ± 0.22 | -1.64 ± 0.23
62 | AAGGAGCAAUAUUACGGAAG | -3.7 ± 0.34 | -1.63 ± 0.25
63 | AAGGAGCAAUAUUACGGACU | -1.99 ± 0.16 | -0.907 ± 0.19
64 | AAGGAGCAAUAUUACGGCCA | -1.83 ± 0.19 | -1.66 ± 0.27
65 | AAGGAGCAAUAUUACGGCGU | -1.33 ± 0.13 | -0.923 ± 0.12
66 | AAGGAGCAAUAUUACGGGCG | -4.03 ± 0.39 | -1.87 ± 0.31
67 | AAGGAGCAAUAUUACGGUCA | – | -2.26 ± 0.32
68 | AAGGAGCAAUAUUACGGUUG | -2.52 ± 0.17 | -3.27 ± 0.32
69 | AAGGAGCAAUAUUACGUCUG | -1.18 ± 0.15 | -0.52 ± 0.27
70 | AAGGAGCAAUAUUACGUGGG | -2.68 ± 0.18 | -2.68 ± 0.17
71 | AAGGAGCAAUAUUACGUGGU | -2.94 ± 0.2 | -1.36 ± 0.22
72 | AAGGAGCAAUAUUACGUUAC | – | -1.53 ± 0.35

Row | Sequence | self-splicing fitness (ln) (30 °C) | self-splicing fitness (ln) (37 °C)
73 | AAGGAGCAAUAUUACGUUAG | -3.67 ± 0.18 | -2.95 ± 0.22
74 | AAGGAGCAAUAUUACGUUCU | -2.47 ± 0.14 | -1.09 ± 0.12
75 | AAGUAGCAAUAUUACGAAUC | -2.13 ± 0.22 | -1.4 ± 0.25
76 | AAGUAGCAAUAUUACGACUU | -0.629 ± 0.11 | -1.34 ± 0.13
77 | AAGUAGCAAUAUUACGAGAG | -3.09 ± 0.22 | -1.05 ± 0.21
78 | AAGUAGCAAUAUUACGAGUA | -1.79 ± 0.15 | -1.86 ± 0.18
79 | AAGUAGCAAUAUUACGAUUG | -3.24 ± 0.28 | -0.999 ± 0.22
80 | AAGUAGCAAUAUUACGCAAC | -3.33 ± 0.25 | -2.87 ± 0.35
81 | AAGUAGCAAUAUUACGCAAG | -1.81 ± 0.17 | 0.657 ± 0.18
82 | AAGUAGCAAUAUUACGCCCC | -1.1 ± 0.19 | -1.22 ± 0.22
83 | AAGUAGCAAUAUUACGCCGG | -3.7 ± 0.3 | -1.59 ± 0.18
84 | AAGUAGCAAUAUUACGCUGU | -3.66 ± 0.25 | -1.87 ± 0.14
85 | AAGUAGCAAUAUUACGGAAC | -1.4 ± 0.49 | -1.46 ± 0.25
86 | AAGUAGCAAUAUUACGGAAG | -2.96 ± 0.19 | -2.44 ± 0.37
87 | AAGUAGCAAUAUUACGGAUU | -0.677 ± 0.092 | -0.751 ± 0.11
88 | AAGUAGCAAUAUUACGGCCA | -0.679 ± 0.095 | 0.256 ± 0.11
89 | AAGUAGCAAUAUUACGGGAC | -2.43 ± 0.11 | -2.83 ± 0.21
90 | AAGUAGCAAUAUUACGGGCG | -1.71 ± 0.11 | -1.53 ± 0.14
91 | AAGUAGCAAUAUUACGGGGA | -2.42 ± 0.18 | -1.74 ± 0.17
92 | AAGUAGCAAUAUUACGGGUU | -1.46 ± 0.13 | -1.55 ± 0.17
93 | AAGUAGCAAUAUUACGUCAC | -3.26 ± 0.15 | -3.73 ± 0.22
94 | AAGUAGCAAUAUUACGUUAC | -3.59 ± 0.3 | -2.71 ± 0.29
95 | AAGUAGCAAUAUUACGUUCC | -1.67 ± 0.16 | -0.678 ± 0.16
96 | AAGUAGCAAUAUUACGUUCG | -1.35 ± 0.13 | -0.681 ± 0.17
